Reference: patent publication US20140322196A1

B1: bLf C-lobe (aa 345-689) (protein)
chain: VVWCAVGPEEQKKCQQWSQQSGQNVTCATASTTDDCIVLVLKGEADALNLDGGYIYTAGKCGLVPVLAENRKSSKHSSLDCVLRPTEGYLAVAVVKKANEGLTWNSLKDKKSCHTAVDRTAGWNIPMGLIVNQTGSCAFDEFFSQSCAPGADPKSRLCALCAGDDQGLDKCVPNSKEKYYGYTGAFRCLAEDVGDVAFVKNDTVWENTNGESTADWAKNLNREDFRLLCLDGTRKPVTEAQSCHLAVAPNHAVVSRSDRAAHVKQVLLHQQALFGKNGKNCPDKFCLFKSETKNLLFNDNTECLAKLGGRPTYEEYLGTEYVTAIANLKKCSTSPLLEACAFLTR
B2: bLf C-lobe (aa 285-689) (protein)
chain: SFQLFGSPPGQRDLLFKDSALGFLRIPSKVDSALYLGSRYLTTLKNLRETAEEVKARYTRVVWCAVGPEEQKKCQQWSQQSGQNVTCATASTTDDCIVLVLKGEADALNLDGGYIYTAGKCGLVPVLAENRKSSKHSSLDCVLRPTEGYLAVAVVKKANEGLTWNSLKDKKSCHTAVDRTAGWNIPMGLIVNQTGSCAFDEFFSQSCAPGADPKSRLCALCAGDDQGLDKCVPNSKEKYYGYTGAFRCLAEDVGDVAFVKNDTVWENTNGESTADWAKNLNREDFRLLCLDGTRKPVTEAQSCHLAVAPNHAVVSRSDRAAHVKQVLLHQQALFGKNGKNCPDKFCLFKSETKNLLFNDNTECLAKLGGRPTYEEYLGTEYVTAIANLKKCSTSPLLEACAFLTR

Key:
Assay in all cases: cell-based or functional assay
[1] = target: Hemagglutinin (HA) of Influenza A virus A/Roma-ISS/2/08 (Brisbane-like) (oseltamivir-sensitive) H1N1 (Influenza A virus A/RomaISS/2/08 H1N1)
[2] = target: Hemagglutinin (HA) of Influenza A virus A/Turkey/Italy/2676/99 H7N1 (Influenza A virus A/Turkey/Italy/2676/99 H7N1)
[3] = target: Hemagglutinin (HA) of Influenza A virus A/Puerto Rico/8/34 H1N1 (PR8 virus) (Influenza A virus A/Puerto Rico/8/34 H1N1) (UniProt P03452)
[4] = target: Hemagglutinin (HA) of Influenza A virus A/Parma/5/06 (Wisconsin-like) H3N2 (Influenza A virus A/Parma/05/06 H3N2)

| Binder | activity on viral hemagglutination (HI) [1] [nM] | activity on viral hemagglutination (HI) [2] [fM] | activity on viral hemagglutination (HI) [3] [nM] | activity on viral hemagglutination (HI) [4] [nM] |
| --- | --- | --- | --- | --- |
| B1 | 10 | 93.1 | 12 | 6 |
| B2 | 10 | 93.1 | 24 | 6 |
